The text below walks through data of patent US20220372155A1 (LYVGEN BIOPHARMA, published 2022).

The chains are these.
B1: Ly413 (bispecific antibody, human IgG1, kappa)
heavy: EVQLVESGGGLVQPGGSLRLSCAASGFNIKDTYMHWVRQAPGKGLEWVARIDPANGNSKYADSVKGRFTISADTSKNTAYLQMNSLRAEDTAVYYCAPFGYYVSDYAMAYWGQGTLVTVSSASTKGPSVFPLAPSSKSTSGGTAALGCLVKDYFPEPVTVSWNSGALTSGVHTFPAVLQSSGLYSLSSVVTVPSSSLGTQTYICNVNHKPSNTKVDKKVEPKSCDKTHTCPPCPAPELLGPSVFLFPPKPKDTLMISRTPEVTCVVVDVSHEDPEVKFNWYVDGVEVHNAKTKPREEQYNSTYRVVSVLTVLHQDWLNGKEYKCKVSNKALPAPIEKTISKAKGQPREPQVYTLPPSREEMTKNQVSLTCLVKGFYPSDIAVEWESNGQPENNYKTTPPVLDSDGSFFLYSKLTVDKSRWQQGNVFSCSVMHEALHNHYTQKSLSLSPGGGGGSGGGGSGGGGSGGGGSDIQMTQSPSSLSASVGDRVTITCLASEDISNDLAWYQQKPGKAPKLLIYFVDRLLDGVPSRFSGSGSGTDFTLTISSLQPEDFATYYCQQSYKYPPTFGQGTKLEIKGGGGSGGGGSGGGGSGGGGSEVQLVESGGGLVQPGGSLRLSCAASGFTFTNYGLHWVRQAPGKGLEWVSSISPSGGVTYYRDSVKGRFTISRDNSKNTLYLQMNSLRAEDTAVYYCAKPFLGWGGANWIAHWGQGTLVTVSS
light: DIQLTQSPSSLSASVGDRVTITCRAGESVDIFGVGFLHWYQQKPGKAPKLLIYRASNLESGVPSRFSGSGSRTDFTLTISSLQPEDFATYYCQQTNEDPYTFGQGTKVEIKRTVAAPSVFIFPPSDEQLKSGTASVVCLLNNFYPREAKVQWKVDNALQSGNSQESVTEQDSKDSTYSLSSTLTLSKADYEKHKVYACEVTHQGLSSPVTKSFNRGEC
notes: Ly312 HC (IgG1 mutated Fc)-TM559 scFv VL-VH + Ly312 LC
B2: Ly414 (bispecific antibody, human IgG1, kappa)
heavy: EVQLVESGGGLVQPGGSLRLSCAASGFNIKDTYMHWVRQAPGKGLEWVARIDPANGNSKYADSVKGRFTISADTSKNTAYLQMNSLRAEDTAVYYCAPFGYYVSDYAMAYWGQGTLVTVSSASTKGPSVFPLAPSSKSTSGGTAALGCLVKDYFPEPVTVSWNSGALTSGVHTFPAVLQSSGLYSLSSVVTVPSSSLGTQTYICNVNHKPSNTKVDKKVEPKSCDKTHTCPPCPAPELLGPSVFLFPPKPKDTLMISRTPEVTCVVVDVSHEDPEVKFNWYVDGVEVHNAKTKPREEQYNSTYRVVSVLTVLHQDWLNGKEYKCKVSNKALPAPIEKTISKAKGQPREPQVYTLPPSREEMTKNQVSLTCLVKGFYPSDIAVEWESNGQPENNYKTTPPVLDSDGSFFLYSKLTVDKSRWQQGNVFSCSVMHEALHNHYTQKSLSLSPGGGGGSGGGGSGGGGSGGGGSEVQLVESGGGLVQPGGSLRLSCAASGFTFTNYGLHWVRQAPGKGLEWVSSISPSGGVTYYRDSVKGRFTISRDNSKNTLYLQMNSLRAEDTAVYYCAKPFLGWGGANWIAHWGQGTLVTVSSGGGGSGGGGSGGGGSGGGGSDIQMTQSPSSLSASVGDRVTITCLASEDISNDLAWYQQKPGKAPKLLIYFVDRLLDGVPSRFSGSGSGTDFTLTISSLQPEDFATYYCQQSYKYPPTFGQGTKLEIK
light: B1 light
notes: Ly312 HC (IgG1 mutated Fc)-TM559 scFv VH-VL + Ly312 LC
B3: Ly415 (bispecific antibody, human IgG1, kappa)
heavy: EVQLVESGGGLVQPGGSLRLSCAASGFNIKDTYMHWVRQAPGKGLEWVARIDPANGNSKYADSVKGRFTISADTSKNTAYLQMNSLRAEDTAVYYCAPFGYYVSDYAMAYWGQGTLVTVSSASTKGPSVFPLAPSSKSTSGGTAALGCLVKDYFPEPVTVSWNSGALTSGVHTFPAVLQSSGLYSLSSVVTVPSSSLGTQTYICNVNHKPSNTKVDKKVEPKSCDKTHTCPPCPAPELLGPSVFLFPPKPKDTLMISRTPEVTCVVVDVSHEDPEVKFNWYVDGVEVHNAKTKPREEQYNSTYRVVSVLTVLHQDWLNGKEYKCKVSNKALPAPIEKTISKAKGQPREPQVYTLPPSREEMTKNQVSLTCLVKGFYPSDIAVEWESNGQPENNYKTTPPVLDSDGSFFLYSKLTVDKSRWQQGNVFSCSVMHEALHNHYTQKSLSLSPGK
light: DIQLTQSPSSLSASVGDRVTITCRAGESVDIFGVGFLHWYQQKPGKAPKLLIYRASNLESGVPSRFSGSGSRTDFTLTISSLQPEDFATYYCQQTNEDPYTFGQGTKVEIKRTVAAPSVFIFPPSDEQLKSGTASVVCLLNNFYPREAKVQWKVDNALQSGNSQESVTEQDSKDSTYSLSSTLTLSKADYEKHKVYACEVTHQGLSSPVTKSFNRGECGGGGSGGGGSGGGGSGGGGSDIQMTQSPSSLSASVGDRVTITCLASEDISNDLAWYQQKPGKAPKLLIYFVDRLLDGVPSRFSGSGSGTDFTLTISSLQPEDFATYYCQQSYKYPPTFGQGTKLEIKGGGGSGGGGSGGGGSGGGGSEVQLVESGGGLVQPGGSLRLSCAASGFTFTNYGLHWVRQAPGKGLEWVSSISPSGGVTYYRDSVKGRFTISRDNSKNTLYLQMNSLRAEDTAVYYCAKPFLGWGGANWIAHWGQGTLVTVSS
notes: Ly312 HC (IgG1 mutated Fc) + Ly312 LC-TM559 scFv VL-VH
B4: Ly411 (bispecific antibody, human IgG1, kappa)
heavy: EVQLVESGGGVVQPGRSLRLSCSASGFDFTTYWMSWVRQAPGKGLEWIGEIHPDSSTINYAPSLKDRFTISRDNAKNTLFLQMDSLRPEDTGVYFCASLYFGFPWFAYWGQGTPVTVSSASTKGPSVFPLAPSSKSTSGGTAALGCLVKDYFPEPVTVSWNSGALTSGVHTFPAVLQSSGLYSLSSVVTVPSSSLGTQTYICNVNHKPSNTKVDKKVEPKSCDKTHTCPPCPAPELLGPSVFLFPPKPKDTLMISRTPEVTCVVVDVSHEDPEVKFNWYVDGVEVHNAKTKPREEQYNSTYRVVSVLTVLHQDWLNGKEYKCKVSNKALPAPIEKTISKAKGQPREPQVYTLPPSREEMTKNQVSLTCLVKGFYPSDIAVEWESNGQPENNYKTTPPVLDSDGSFFLYSKLTVDKSRWQQGNVFSCSVMHEALHNHYTQKSLSLSPGK
light: DIQLTQSPSSLSASVGDRVTITCKASQDVGTSVAWYQQKPGKAPKLLIYWTSTRHTGVPSRFSGSGSGTDFTFTISSLQPEDIATYYCQQYSLYRSFGQGTKVEIKRTVAAPSVFIFPPSDEQLKSGTASVVCLLNNFYPREAKVQWKVDNALQSGNSQESVTEQDSKDSTYSLSSTLTLSKADYEKHKVYACEVTHQGLSSPVTKSFNRGECGGGGSGGGGSGGGGSGGGGSDIQMTQSPSSLSASVGDRVTITCLASEDISNDLAWYQQKPGKAPKLLIYFVDRLLDGVPSRFSGSGSGTDFTLTISSLQPEDFATYYCQQSYKYPPTFGQGTKLEIKGGGGSGGGGSGGGGSGGGGSEVQLVESGGGLVQPGGSLRLSCAASGFTFTNYGLHWVRQAPGKGLEWVSSISPSGGVTYYRDSVKGRFTISRDNSKNTLYLQMNSLRAEDTAVYYCAKPFLGWGGANWIAHWGQGTLVTVSS
notes: Ly311 HC (IgG1 mutated Fc) + Ly311 LC-TM559 scFv VL-VH
B5: Ly412 (bispecific antibody, human IgG1, kappa)
heavy: B4 heavy
light: DIQLTQSPSSLSASVGDRVTITCKASQDVGTSVAWYQQKPGKAPKLLIYWTSTRHTGVPSRFSGSGSGTDFTFTISSLQPEDIATYYCQQYSLYRSFGQGTKVEIKRTVAAPSVFIFPPSDEQLKSGTASVVCLLNNFYPREAKVQWKVDNALQSGNSQESVTEQDSKDSTYSLSSTLTLSKADYEKHKVYACEVTHQGLSSPVTKSFNRGECGGGGSGGGGSGGGGSGGGGSEVQLVESGGGLVQPGGSLRLSCAASGFTFTNYGLHWVRQAPGKGLEWVSSISPSGGVTYYRDSVKGRFTISRDNSKNTLYLQMNSLRAEDTAVYYCAKPFLGWGGANWIAHWGQGTLVTVSSGGGGSGGGGSGGGGSGGGGSDIQMTQSPSSLSASVGDRVTITCLASEDISNDLAWYQQKPGKAPKLLIYFVDRLLDGVPSRFSGSGSGTDFTLTISSLQPEDFATYYCQQSYKYPPTFGQGTKLEIK
notes: Ly311 HC (IgG1 mutated Fc) + Ly311 LC-TM559 scFv VH-VL
B6: Ly409 (bispecific antibody, human IgG1, kappa)
heavy: EVQLVESGGGVVQPGRSLRLSCSASGFDFTTYWMSWVRQAPGKGLEWIGEIHPDSSTINYAPSLKDRFTISRDNAKNTLFLQMDSLRPEDTGVYFCASLYFGFPWFAYWGQGTPVTVSSASTKGPSVFPLAPSSKSTSGGTAALGCLVKDYFPEPVTVSWNSGALTSGVHTFPAVLQSSGLYSLSSVVTVPSSSLGTQTYICNVNHKPSNTKVDKKVEPKSCDKTHTCPPCPAPELLGPSVFLFPPKPKDTLMISRTPEVTCVVVDVSHEDPEVKFNWYVDGVEVHNAKTKPREEQYNSTYRVVSVLTVLHQDWLNGKEYKCKVSNKALPAPIEKTISKAKGQPREPQVYTLPPSREEMTKNQVSLTCLVKGFYPSDIAVEWESNGQPENNYKTTPPVLDSDGSFFLYSKLTVDKSRWQQGNVFSCSVMHEALHNHYTQKSLSLSPGGGGGSGGGGSGGGGSGGGGSDIQMTQSPSSLSASVGDRVTITCLASEDISNDLAWYQQKPGKAPKLLIYFVDRLLDGVPSRFSGSGSGTDFTLTISSLQPEDFATYYCQQSYKYPPTFGQGTKLEIKGGGGSGGGGSGGGGSGGGGSEVQLVESGGGLVQPGGSLRLSCAASGFTFTNYGLHWVRQAPGKGLEWVSSISPSGGVTYYRDSVKGRFTISRDNSKNTLYLQMNSLRAEDTAVYYCAKPFLGWGGANWIAHWGQGTLVTVSS
light: DIQLTQSPSSLSASVGDRVTITCKASQDVGTSVAWYQQKPGKAPKLLIYWTSTRHTGVPSRFSGSGSGTDFTFTISSLQPEDIATYYCQQYSLYRSFGQGTKVEIKRTVAAPSVFIFPPSDEQLKSGTASVVCLLNNFYPREAKVQWKVDNALQSGNSQESVTEQDSKDSTYSLSSTLTLSKADYEKHKVYACEVTHQGLSSPVTKSFNRGEC
notes: Ly311 HC (IgG1 mutated Fc)-TM559 scFv VL-VH + Ly311 LC
B7: Ly410 (bispecific antibody, human IgG1, kappa)
heavy: EVQLVESGGGVVQPGRSLRLSCSASGFDFTTYWMSWVRQAPGKGLEWIGEIHPDSSTINYAPSLKDRFTISRDNAKNTLFLQMDSLRPEDTGVYFCASLYFGFPWFAYWGQGTPVTVSSASTKGPSVFPLAPSSKSTSGGTAALGCLVKDYFPEPVTVSWNSGALTSGVHTFPAVLQSSGLYSLSSVVTVPSSSLGTQTYICNVNHKPSNTKVDKKVEPKSCDKTHTCPPCPAPELLGPSVFLFPPKPKDTLMISRTPEVTCVVVDVSHEDPEVKFNWYVDGVEVHNAKTKPREEQYNSTYRVVSVLTVLHQDWLNGKEYKCKVSNKALPAPIEKTISKAKGQPREPQVYTLPPSREEMTKNQVSLTCLVKGFYPSDIAVEWESNGQPENNYKTTPPVLDSDGSFFLYSKLTVDKSRWQQGNVFSCSVMHEALHNHYTQKSLSLSPGGGGGSGGGGSGGGGSGGGGSEVQLVESGGGLVQPGGSLRLSCAASGFTFTNYGLHWVRQAPGKGLEWVSSISPSGGVTYYRDSVKGRFTISRDNSKNTLYLQMNSLRAEDTAVYYCAKPFLGWGGANWIAHWGQGTLVTVSSGGGGSGGGGSGGGGSGGGGSDIQMTQSPSSLSASVGDRVTITCLASEDISNDLAWYQQKPGKAPKLLIYFVDRLLDGVPSRFSGSGSGTDFTLTISSLQPEDFATYYCQQSYKYPPTFGQGTKLEIK
light: B6 light
notes: Ly311 HC (IgG1 mutated Fc)-TM559 scFv VH-VL + Ly311 LC

The target in the assay is T1, human CD40 expressed on CHO cells (human, UniProt P25942 21-277).
T1 construct: whole, on cells; also used for the reporter cells over-expressing human CD40; also called cellular CD40; CHO-CD40 cells
T1 sequence (P25942 21-277): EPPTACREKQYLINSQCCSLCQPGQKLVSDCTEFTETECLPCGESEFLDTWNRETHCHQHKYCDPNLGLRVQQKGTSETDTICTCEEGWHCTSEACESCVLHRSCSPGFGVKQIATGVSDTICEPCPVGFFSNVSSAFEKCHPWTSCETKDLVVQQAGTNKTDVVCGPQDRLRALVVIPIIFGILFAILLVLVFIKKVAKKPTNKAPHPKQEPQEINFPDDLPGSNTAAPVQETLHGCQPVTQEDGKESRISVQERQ
Put plainly: FACS, CHO cells.
For B1, the binding result was “binds”. In the case of B2, the binding result is on record as “binds”. Under B3 stands “binds”.

For B4, the binding result was “binds”.

B5: the binding result is “binds”. With B6, the binding result is on record as “binds”. Then B7, with “binds”.
